In patent publication US20110245167A1:

Biological target: Recombinant human Src expressed in Sf9 insect cells (purified recombinant full-length Src from Upstate Biotechnology) (human) (UniProt P12931)
Test: cell-based or functional assay

- IC50 of Src inhibition (pY418): 50 nM
Substance: GST-ND1 (amino acid residue 379-435 of pig kidney Na/K-ATPase α1 subunit) (from UniProt P05023 381-439)
